B1: E3 ubiquitin-protein ligase TRIM69 (Homo sapiens), Q86WT6 (parent)
chain: MEVSTNPSSNIDPGDYVEMNDSITHLPSKVVIQDITMELHCPLCNDWFRDPLMLSCGHNFCEACIQDFWRLQAKETFCPECKMLCQYNNCTFNPVLDKLVEKIKKLPLLKGHPQCPEHGENLKLFSKPDGKLICFQCKDARLSVGQSKEFLQISDAVHFFTEELAIQQGQLETTLKELQTLRNMQKEAIAAHKENKLHLQQHVSMEFLKLHQFLHSKEKDILTELREEGKALNEEMELNLSQLQEQCLLAKDMLVSIQAKTEQQNSFDFLKDITTLLHSLEQGMKVLATRELISRKLNLGQYKGPIQYMVWREMQDTLCPGLSPLTLDPKTAHPNLVLSKSQTSVWHGDIKKIMPDDPERFDSSVAVLGSRGFTSGKWYWEVEVAKKTKWTVGVVRESIIRKGSCPLTPEQGFWLLRLRNQTDLKALDLPSFSLTLTNNLDKVGIYLDYEGGQLSFYNAKTMTHIYTFSNTFMEKLYPYFCPCLNDGGENKEPLHILHPQ
B2: Myogenin (Homo sapiens), P15173 (parent)
chain: MELYETSPYFYQEPRFYDGENYLPVHLQGFEPPGYERTELTLSPEAPGPLEDKGLGTPEHCPGQCLPWACKVCKRKSVSVDRRRAATLREKRRLKKVNEAFEALKRSTLLNPNQRLPKVEILRSAIQYIERLQALLSSLNQEERDLRYRGGGGPQPGVPSECSSHSASCSPEWGSALEFSANPGDHLLTADPTDAHNLHSLTSIVDSITVEDVSVAFPDETMPN
partner: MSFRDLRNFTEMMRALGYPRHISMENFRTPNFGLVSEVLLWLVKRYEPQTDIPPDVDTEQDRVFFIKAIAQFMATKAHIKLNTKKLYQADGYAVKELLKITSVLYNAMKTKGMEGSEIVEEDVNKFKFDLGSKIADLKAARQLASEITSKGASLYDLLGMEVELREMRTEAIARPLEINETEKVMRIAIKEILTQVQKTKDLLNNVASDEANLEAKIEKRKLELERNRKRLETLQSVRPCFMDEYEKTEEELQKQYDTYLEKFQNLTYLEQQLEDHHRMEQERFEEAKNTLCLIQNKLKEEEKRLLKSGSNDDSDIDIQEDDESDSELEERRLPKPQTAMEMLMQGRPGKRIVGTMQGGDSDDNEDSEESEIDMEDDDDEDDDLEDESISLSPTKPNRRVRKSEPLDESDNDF
B3: Kinetochore protein NDC80 homolog (Homo sapiens), O14777 (parent)
chain: MKRSSVSSGGAGRLSMQELRSQDVNKQGLYTPQTKEKPTFGKLSINKPTSERKVSLFGKRTSGHGSRNSQLGIFSSSEKIKDPRPLNDKAFIQQCIRQLCEFLTENGYAHNVSMKSLQAPSVKDFLKIFTFLYGFLCPSYELPDTKFEEEVPRIFKDLGYPFALSKSSMYTVGAPHTWPHIVAALVWLIDCIKIHTAMKESSPLFDDGQPWGEETEDGIMHNKLFLDYTIKCYESFMSGADSFDEMNAELQSKLKDLFNVDAFKLESLEAKNRALNEQIARLEQEREKEPNRLESLRKLKASLQGDVQKYQAYMSNLESHSAILDQKLNGLNEEIARVELECETIKQENTRLQNIIDNQKYSVADIERINHERNELQQTINKLTKDLEAEQQKLWNEELKYARGKEAIETQLAEYHKLARKLKLIPKGAENSKGYDFEIKFNPEAGANCLVKYRAQVYVPLKELLNETEEEINKALNKKMGLEDTLEQLNAMITESKRSVRTLKEEVQKLDDLYQQKIKEAEEEDEKCASELESLEKHKHLLESTVNQGLSEAMNELDAVQREYQLVVQTTTEERRKVGNNLQRLLEMVATHVGSVEKHLEEQIAKVDREYEECMSEDLSENIKEIRDKYEKKATLIKSSEE
partner: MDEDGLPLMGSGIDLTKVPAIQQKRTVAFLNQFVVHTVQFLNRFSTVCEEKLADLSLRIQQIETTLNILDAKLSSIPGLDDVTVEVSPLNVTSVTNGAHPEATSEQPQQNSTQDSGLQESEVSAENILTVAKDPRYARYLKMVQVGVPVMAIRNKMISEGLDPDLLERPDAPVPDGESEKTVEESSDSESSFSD

Variants of: B1
Conditions: with at5g1_human ATP5MC1, P05496
at5g1_human ATP5MC1, P05496, sequence (P05496 whole entry): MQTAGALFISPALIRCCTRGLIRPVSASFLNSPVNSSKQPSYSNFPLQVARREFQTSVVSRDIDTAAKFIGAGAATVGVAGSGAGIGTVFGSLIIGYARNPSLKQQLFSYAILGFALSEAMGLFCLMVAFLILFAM

Row | Variant | effect of a mutation on the interaction
1 | A190V | with no effect
2 | N239K | disrupting interaction strength
3 | Q301H | with no effect
4 | I399F | with no effect

Variants of: B1
Conditions: with maga4_human MAGEA4, P43358
maga4_human MAGEA4, P43358, sequence (P43358 whole entry): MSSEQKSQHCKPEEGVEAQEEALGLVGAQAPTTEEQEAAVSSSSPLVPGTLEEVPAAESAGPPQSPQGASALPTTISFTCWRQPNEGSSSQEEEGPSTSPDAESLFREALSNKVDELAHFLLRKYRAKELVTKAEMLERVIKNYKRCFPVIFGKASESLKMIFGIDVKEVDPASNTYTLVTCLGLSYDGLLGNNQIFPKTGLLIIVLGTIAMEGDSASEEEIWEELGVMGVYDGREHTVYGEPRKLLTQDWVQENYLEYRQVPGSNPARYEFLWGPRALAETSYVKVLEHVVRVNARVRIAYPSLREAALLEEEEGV

Row | Variant | effect of a mutation on the interaction
5 | A190V | with no effect
6 | N239K | with no effect
7 | Q301H | with no effect
8 | I399F | with no effect

Variants of: B2
Conditions: with clua1_human CLUAP1, Q96AJ1

Row | Variant | effect of a mutation on the interaction
9 | P49H | with no effect
10 | R147C | with no effect

Variants of: B3
Conditions: with wasc3_human WASHC3, Q9Y3C0

Row | Variant | effect of a mutation on the interaction
11 | S55P | with no effect
12 | A605P | with no effect
